Results from article PMC3122231.
Where two headings read alike, the source gives them in different places.

Tests used:
[1] = target: rhodamine-phalloidin-labeled, 10% biotinylated filamentous actin (UniProt P68135); assay: optical trapping
[2] = target: F-actin prepared from rabbit skeletal muscle (rabbit) (UniProt P68135); assay: co-sedimentation
[3] = target: F-actin prepared from rabbit skeletal muscle (rabbit) (UniProt P68135); assay: co-sedimentation; remark: listed apart in the source

koff [1]	Kd [2]	Kd [3]	fraction bound in the first sedimentation at 20 μM actin [3]	Substance
94.2 s⁻¹	1.5 µM	2.6 µM	54.9%	Drosophila myosin-18 M-PDZ (minimal motor domain construct with the N-terminal PDZ domain) (domain or fragment)
57 s⁻¹	1 µM	1 µM		Drosophila myosin-18 M-ΔPDZ (minimal motor domain construct without the PDZ domain) (domain or fragment)
